These are literature values, as cited in US20140295424.

The data set relates to IgE (human myeloma IgE) (Homo sapiens). The note with it: CITED; KD stated for purchased aptamer D17.4, no measurement described; cited from earlier work.

As to “GCCTGTTGTGAGCCTCCTGTCGAAGCACGTTTATCCGTCCCTCCTAGTGGCGTGCTTGAGCGTTTATTCTTGTCTCCC [IgE aptamer D17.4]”, the Kd was 10 nM.
